{"source": "paper doi:10.1101/2024.12.27.630498", "about": "(bioRxiv, 2024)", "proteins": {"B1": {"name": "Arabidopsis thaliana AKT1 (Arabidopsis K+ transporter 1), construct for the structure of AKT1 alone (natural protein)", "chain": "not shown"}}, "biological_target": "the molecule itself", "test": "cryo-EM structure", "data": [{"protein": "B1", "values": [{"measurement": "stoichiometry N", "value": 4}]}]}
